The text below walks through data of patent US20130252282A1.

A word on the Kd: it is the concentration at which binding is half-saturated. Read a high Kd as weaker binding.

Assay [1] concerns the target Dronpa145N (Pectimidae genus coral). The assay can be described thus: inferred from native PAGE of 100 µM protein after cyan (about 500 nm) illumination; self-association, off-photoswitched state.
Assay [2] has as its target Cdc42 (UniProt P60766). The assay can be described thus: cell-based or functional assay.
Chain of UniProt P60766 (P60766 1-188 limits assumed): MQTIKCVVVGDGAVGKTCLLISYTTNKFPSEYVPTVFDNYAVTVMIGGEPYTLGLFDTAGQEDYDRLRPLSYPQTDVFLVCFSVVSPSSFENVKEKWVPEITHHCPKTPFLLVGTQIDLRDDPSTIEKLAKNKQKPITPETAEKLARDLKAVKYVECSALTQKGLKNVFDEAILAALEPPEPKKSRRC

Dronpa145N gave an equilibrium dissociation constant (Kd) in assay [1] of over 100 µM. On to “K-I-N-CAAX (Dronpa145K-intersectin DH domain-Dronpa145N-CAAX) (from UniProt Q15811 1234-1428) (enzyme)”, for which, in assay [2], the basal filopodia or lamellipodia in low expressers worked out at 8%; the cells forming abundant filopodia within 30 minutes after illumination came to 90%; the cells forming filopodia, not exposed to light turned out to be 25%. “N-I-N-CAAX (Dronpa145N-intersectin DH domain-Dronpa145N-CAAX) (from UniProt Q15811 1234-1428)” displayed a basal filopodia or lamellipodia in low expressers in assay [2] of 0%. With “N-I-N-CAAX (Dronpa145N-intersectin DH domain-Dronpa145N-CAAX) (from UniProt Q15811 1234-1428) (enzyme)”, in assay [2], the cells forming abundant filopodia within 30 minutes after 490/20-nm light for 30 seconds stood at 78% and the cells forming filopodia in the same time interval without illumination turned out to be 10%.
